Here are results for 120 sequences from the supplement of paper PMC10126150.

± gives the standard deviation of the averaged measurements.

The test system of the data set is ATP. Nature of the data set: switch fluorescence ratio, 500 uM ATP over buffer (Cy3 cluster intensity, sum of 5 cycles each) (fold (ratio)); higher = stronger signal-on switching upon ATP binding; sequences stand for … in TCGTCGGCAGCGTCAGATGTGTATAAGAGACAGTTTTTTTTTTTTTTTTTTTTTTTTT…TC. The conditions noted are these: aptamer strand: ATP DNA aptamer (quencher-CACCTGGGGGAGTATTGCGGAGGAAGG + anchor), 100 nM annealed; ATP concentration: 500 uM. An outline of the steps: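 Clusters carrying Cy3-labelled switching strands on a modified Illumina MiSeq flow-cell were annealed to 100 nM quencher-labelled ATP aptamer and imaged in selection buffer. They were imaged again after 15 min with 500 uM ATP at 22 °C, over five buffer/ATP cycles with NaOH stripping and re-annealing in between. For each cluster, the fluorescence ratio is the summed Cy3 intensity of the target cycles divided by that of the buffer cycles, averaged per switch-domain sequence. Clusters outside 100-1000 RFU were left out.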
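Further: ATP exposure 15 min at 22 °C before imaging.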

Regarding TGTAAGGGGT, the switch fluorescence ratio amounted to 1.06 ± 0.085. TGTAAGTCTT: the switch fluorescence ratio is 0.966 ± 0.032. For the sequence TGTAAGTGCG, the switch fluorescence ratio was 0.9833 ± 0.0063.

With TGTAATGCCC, the switch fluorescence ratio came to 0.991 ± 0.02. Take TGTACGTAG: the switch fluorescence ratio was determined as 1.01 ± 0.012. As for TGTACTAGGA, the figure is 0.968 ± 0.018; as for TGTACTGGGG, 1.003 ± 0.0094; as for TGTAGCAGCG, 1.1 ± 0.16. With TGTAGCATCT, the switch fluorescence ratio amounted to 1.081 ± 0.0096. As for TGTAGGGGTA, the switch fluorescence ratio stood at 0.98 ± 0.045. Consider TGTAGGGGTT, for which the switch fluorescence ratio stood at 1 ± 0.044. Turning to TGTAGTACCG, the switch fluorescence ratio came to 1.021 ± 0.0056. Turning to TGTAGTACTT, the switch fluorescence ratio was 1.02 ± 0.016. For TGTAGTTGGT, the switch fluorescence ratio is 1.014 ± 0.0096. As for TGTAGTTTGA, the figure is 1 ± 0.012; as for TGTATACTTT, 1.018 ± 0.0081. On to TGTATAGGGT, for which the switch fluorescence ratio is 1.01 ± 0.048. In the case of TGTATATGG, the switch fluorescence ratio turned out to be 0.958 ± 0.016. As to TGTATTGGTT, the switch fluorescence ratio amounted to 0.99 ± 0.034. In the case of TGTATTTTGT, the switch fluorescence ratio worked out at 0.976 ± 0.022. For the sequence TGTCAAAGAT, the switch fluorescence ratio came to 0.9772 ± 0.0044. Take TGTCACAGTT: the switch fluorescence ratio was found to be 1.01 ± 0.013.

Regarding TGTCAGGGCA, the switch fluorescence ratio worked out at 1.02 ± 0.064. Take TGTCAGTGCG: the switch fluorescence ratio came out at 0.97 ± 0.042. TGTCATAATG: the switch fluorescence ratio is 0.97 ± 0.015.

Take TGTCGAAAGA: the switch fluorescence ratio is 0.999 ± 0.013. Regarding TGTCGACTGT, the switch fluorescence ratio was found to be 0.987 ± 0.042. With TGTCGGAGGT, the switch fluorescence ratio was determined as 1.02 ± 0.05. Consider TGTCGGGGAG, for which the switch fluorescence ratio was determined as 1.01 ± 0.018. TGTCGGGGGG: the switch fluorescence ratio came to 1.01 ± 0.028. Consider TGTCGGTCGG, for which the switch fluorescence ratio worked out at 0.984 ± 0.015. Turning to TGTCGTCTGT, the switch fluorescence ratio was found to be 0.9932 ± 0.0063. In the case of TGTCTATAGT, the switch fluorescence ratio is 0.986 ± 0.036. Next, TGTCTATCGG: 0.974 ± 0.014; TGTCTCGCCC: 1.02 ± 0.024; TGTCTCTGTC: 1.01 ± 0.021.

Turning to TGTCTGAGGG, the switch fluorescence ratio was 1 ± 0.013.

As to TGTCTGCAGC, the switch fluorescence ratio is 1.022 ± 0.0085. With TGTCTGCTTT, the switch fluorescence ratio amounted to 0.997 ± 0.043. As for TGTCTTTTTT, the figure is 1.01 ± 0.029. Next, TGTGAAAAAG: 0.976 ± 0.053; TGTGAACTTT: 1.01 ± 0.012; TGTGAAGGGC: 1.02 ± 0.029. Take TGTGAATGGT: the switch fluorescence ratio was found to be 0.985 ± 0.015. In the case of TGTGAGGCTT, the switch fluorescence ratio is 1.03 ± 0.015.

TGTGAGGGCG: the switch fluorescence ratio came out at 1.06 ± 0.015.

For the sequence TGTGATAGGG, the switch fluorescence ratio was 0.978 ± 0.06. With TGTGATAGGT, the switch fluorescence ratio came out at 1 ± 0.028. For TGTGATGGAG, the switch fluorescence ratio worked out at 0.979 ± 0.033. TGTGATGGGT: the switch fluorescence ratio amounted to 0.996 ± 0.04. As to TGTGATTTCG, the switch fluorescence ratio is 0.945 ± 0.048. Regarding TGTGCGGGGT, the switch fluorescence ratio is 0.974 ± 0.012. Next, TGTGCTAAGT: 0.985 ± 0.026; TGTGCTTTGT: 1 ± 0.016; TGTGGCAACG: 0.974 ± 0.032. In the case of TGTGGCCAGG, the switch fluorescence ratio worked out at 1.04 ± 0.056.

As to TGTGGCGACG, the switch fluorescence ratio is 0.957 ± 0.012. For the sequence TGTGGCTAGG, the switch fluorescence ratio was determined as 1.02 ± 0.029. Next, TGTGGCTTAA: 0.9668 ± 0.0021; TGTGGGAGCT: 1.04 ± 0.07; TGTGGGAGGT: 0.9573 ± 0.0065. As to TGTGGGATTG, the switch fluorescence ratio was 0.993 ± 0.015. Consider TGTGGGCTGT, for which the switch fluorescence ratio was 1.02 ± 0.015. As for TGTGGGGAAG, the switch fluorescence ratio was found to be 0.989 ± 0.016. TGTGGGGAAT: the switch fluorescence ratio worked out at 1.04 ± 0.075. On to TGTGGGGATG, for which the switch fluorescence ratio is 1.01 ± 0.02.

As for TGTGGGGCAT, the switch fluorescence ratio was 1.15 ± 0.27. Regarding TGTGGGGCC, the switch fluorescence ratio is 1.04 ± 0.03. In the case of TGTGGGGGGC, the switch fluorescence ratio amounted to 1 ± 0.038. Next, TGTGGGGGGG: 1.01 ± 0.045; TGTGGGGTCT: 1.02 ± 0.038. Turning to TGTGGGGTGT, the switch fluorescence ratio is 1.039 ± 0.0096. Take TGTGGGTTGG: the switch fluorescence ratio was 0.956 ± 0.018. As for TGTGGGTTTG, the switch fluorescence ratio came out at 0.958 ± 0.012. For TGTGGGTTTT, the switch fluorescence ratio is 1.02 ± 0.056. Next, TGTGGTATAT: 0.993 ± 0.024; TGTGGTCTGA: 1.01 ± 0.09; TGTGGTCTGT: 0.981 ± 0.033. Turning to TGTGGTGCAG, the switch fluorescence ratio is 1 ± 0.042. As for TGTGGTGGC, the figure is 0.995 ± 0.019; as for TGTGGTGGGC, 0.967 ± 0.0012.

On to TGTGGTGTTT, for which the switch fluorescence ratio amounted to 0.984 ± 0.036. Regarding TGTGGTTTTT, the switch fluorescence ratio worked out at 1.01 ± 0.031.

On to TGTGTAAGGG, for which the switch fluorescence ratio turned out to be 1.02 ± 0.029. TGTGTACAGG: the switch fluorescence ratio turned out to be 0.978 ± 0.017. As for TGTGTACCG, the figure is 1.01 ± 0.065; as for TGTGTCACCT, 1.09 ± 0.025. On to TGTGTGCGGC, for which the switch fluorescence ratio was 1 ± 0.028. Next, TGTGTGTGGA: 1.04 ± 0.03; TGTGTGTTTT: 1.01 ± 0.027. Turning to TGTGTTCCAA, the switch fluorescence ratio amounted to 1.002 ± 0.0047. Turning to TGTGTTGTCA, the switch fluorescence ratio is 1.01 ± 0.011. TGTGTTTACT: the switch fluorescence ratio came to 0.991 ± 0.022.

Take TGTGTTTTAG: the switch fluorescence ratio came out at 0.976 ± 0.015. Consider TGTGTTTTTA, for which the switch fluorescence ratio was 1.006 ± 0.0016.

Regarding TGTTAAAAAA, the switch fluorescence ratio amounted to 1.01 ± 0.02. For the sequence TGTTAAATGA, the switch fluorescence ratio came out at 0.97 ± 0.013. In the case of TGTTAACGGT, the switch fluorescence ratio came to 0.991 ± 0.071. Next, TGTTAAGGGG: 1.18 ± 0.21; TGTTACAGAG: 1.01 ± 0.052; TGTTACGGAG: 1.009 ± 0.0042. Turning to TGTTACGTTT, the switch fluorescence ratio stood at 0.992 ± 0.021. In the case of TGTTAGAATC, the switch fluorescence ratio was determined as 0.963 ± 0.012.

Turning to TGTTAGGAAT, the switch fluorescence ratio came out at 1 ± 0.021.

Turning to TGTTAGGTAG, the switch fluorescence ratio came out at 1.01 ± 0.011. Turning to TGTTAGTAAT, the switch fluorescence ratio was determined as 1.019 ± 0.0087. Turning to TGTTATACAT, the switch fluorescence ratio amounted to 1.01 ± 0.024. Regarding TGTTATAGAC, the switch fluorescence ratio was 1.05 ± 0.041. TGTTATATGT: the switch fluorescence ratio was 1.01 ± 0.012.

As for TGTTATTCAT, the switch fluorescence ratio was 0.985 ± 0.041.

TGTTATTGTT: the switch fluorescence ratio came out at 1.03 ± 0.012.

Consider TGTTATTTGA, for which the switch fluorescence ratio stood at 0.996 ± 0.0056.

For the sequence TGTTCGAGGG, the switch fluorescence ratio is 1.02 ± 0.059. In the case of TGTTGAATTT, the switch fluorescence ratio was determined as 0.958 ± 0.016. Regarding TGTTGAGCTC, the switch fluorescence ratio was 0.9936 ± 0.0084. As to TGTTGCAATT, the switch fluorescence ratio was found to be 1.01 ± 0.052. With TGTTGCATAA, the switch fluorescence ratio stood at 0.968 ± 0.016. For TGTTGCGCTA, the switch fluorescence ratio came out at 1.02 ± 0.029. As for TGTTGCGTTG, the figure is 0.954 ± 0.039; as for TGTTGCTCCA, 1.05 ± 0.082.
